Source: paper PMC5587775 (Nucleic Acids Research, 2017)

Target: T1, recombinant MyoD protein (UniProt P10085 1-318)
T1 sequence (looked up): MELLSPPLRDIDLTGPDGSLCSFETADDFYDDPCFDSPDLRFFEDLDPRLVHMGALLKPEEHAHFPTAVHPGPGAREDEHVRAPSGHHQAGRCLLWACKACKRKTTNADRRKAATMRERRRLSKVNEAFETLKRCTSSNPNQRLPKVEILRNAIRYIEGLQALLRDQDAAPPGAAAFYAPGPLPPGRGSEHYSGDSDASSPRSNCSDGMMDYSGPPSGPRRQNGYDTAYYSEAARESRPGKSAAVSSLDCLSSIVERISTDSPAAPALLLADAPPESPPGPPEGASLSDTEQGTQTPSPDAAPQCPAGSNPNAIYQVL
Test: pull-down

fold retrieval with E-box motif DNA against without: 1.6 fold
B1: FoxO3 (natural protein, mouse (endogenous in C2C12), UniProt Q9WVH4 1-672, looked up)
chain: MAEAPASPVPLSPLEVELDPEFEPQSRPRSCTWPLQRPELQASPAKPSGETAADSMIPEEDDDEDDEDGGGRASSAMVIGGGVSSTLGSGLLLEDSAMLLAPGGQDLGSGPASAAGALSGGTPTQLQPQQPLPQPQPGAAGGSGQPRKCSSRRNAWGNLSYADLITRAIESSPDKRLTLSQIYEWMVRCVPYFKDKGDSNSSAGWKNSIRHNLSLHSRFMRVQNEGTGKSSWWIINPDGGKSGKAPRRRAVSMDNSNKYTKSRGRAAKKKAALQAAPESADDSPSQLSKWPGSPTSRSSDELDAWTDFRSRTNSNASTVSGRLSPILASTELDDVQDDDGPLSPMLYSSSASLSPSVSKPCTVELPRLTDMAGTMNLNDGLAENLMDDLLDNIALPPSQPSPPGGLMQRGSSFPYTAKSSGLGSPTGSFNSTVFGPSSLNSLRQSPMQTIQENRPATFSSVSHYGNQTLQDLLASDSLSHSDVMMTQSDPLMSQASTAVSAQNARRNVMLRNDPMMSFAAQPTQGSLVNQNLLHHQHQTQGALGGSRALSNSVSNMGLSDSSSLGSAKHQQQSPASQSMQTLSDSLSGSSLYSASANLPVMGHDKFPSDLDLDMFNGSLECDMESIIRSELMDADGLDFNFDSLISTQNVVGLNVGNFTGAKQASSQSWVPG
